Test results taken from patent publication US20240209409A1 (AJINOMOTO, published 2024).
Where no end group is shown, it is not given here. [ ]: non-standard residue; d: D form. Phe(4-N3) = [N-]=[N+]=Nc1ccc(C[C@H](N)C(=O)O)cc1

Legend:
Met = Met (UniProt P08581 25-1390, limits assumed); test: cell-based or functional assay
EPOR = target: T1, EPOR (UniProt P19235 25-508, limits assumed); test: cell-based or functional assay
T1 sequence (looked up): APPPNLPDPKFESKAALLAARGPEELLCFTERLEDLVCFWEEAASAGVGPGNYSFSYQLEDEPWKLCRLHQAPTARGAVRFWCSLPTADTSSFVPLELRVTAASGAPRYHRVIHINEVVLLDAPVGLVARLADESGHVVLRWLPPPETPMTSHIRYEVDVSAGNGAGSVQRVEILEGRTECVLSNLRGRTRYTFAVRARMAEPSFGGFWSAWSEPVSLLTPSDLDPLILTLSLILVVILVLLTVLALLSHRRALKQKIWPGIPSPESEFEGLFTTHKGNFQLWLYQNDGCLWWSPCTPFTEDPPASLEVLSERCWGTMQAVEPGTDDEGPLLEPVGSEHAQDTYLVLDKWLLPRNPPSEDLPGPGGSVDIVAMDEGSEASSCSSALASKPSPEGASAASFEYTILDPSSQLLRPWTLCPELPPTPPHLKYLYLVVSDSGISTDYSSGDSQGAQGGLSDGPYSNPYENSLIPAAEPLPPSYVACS

Chain of Met (P08581 25-1390 limits assumed): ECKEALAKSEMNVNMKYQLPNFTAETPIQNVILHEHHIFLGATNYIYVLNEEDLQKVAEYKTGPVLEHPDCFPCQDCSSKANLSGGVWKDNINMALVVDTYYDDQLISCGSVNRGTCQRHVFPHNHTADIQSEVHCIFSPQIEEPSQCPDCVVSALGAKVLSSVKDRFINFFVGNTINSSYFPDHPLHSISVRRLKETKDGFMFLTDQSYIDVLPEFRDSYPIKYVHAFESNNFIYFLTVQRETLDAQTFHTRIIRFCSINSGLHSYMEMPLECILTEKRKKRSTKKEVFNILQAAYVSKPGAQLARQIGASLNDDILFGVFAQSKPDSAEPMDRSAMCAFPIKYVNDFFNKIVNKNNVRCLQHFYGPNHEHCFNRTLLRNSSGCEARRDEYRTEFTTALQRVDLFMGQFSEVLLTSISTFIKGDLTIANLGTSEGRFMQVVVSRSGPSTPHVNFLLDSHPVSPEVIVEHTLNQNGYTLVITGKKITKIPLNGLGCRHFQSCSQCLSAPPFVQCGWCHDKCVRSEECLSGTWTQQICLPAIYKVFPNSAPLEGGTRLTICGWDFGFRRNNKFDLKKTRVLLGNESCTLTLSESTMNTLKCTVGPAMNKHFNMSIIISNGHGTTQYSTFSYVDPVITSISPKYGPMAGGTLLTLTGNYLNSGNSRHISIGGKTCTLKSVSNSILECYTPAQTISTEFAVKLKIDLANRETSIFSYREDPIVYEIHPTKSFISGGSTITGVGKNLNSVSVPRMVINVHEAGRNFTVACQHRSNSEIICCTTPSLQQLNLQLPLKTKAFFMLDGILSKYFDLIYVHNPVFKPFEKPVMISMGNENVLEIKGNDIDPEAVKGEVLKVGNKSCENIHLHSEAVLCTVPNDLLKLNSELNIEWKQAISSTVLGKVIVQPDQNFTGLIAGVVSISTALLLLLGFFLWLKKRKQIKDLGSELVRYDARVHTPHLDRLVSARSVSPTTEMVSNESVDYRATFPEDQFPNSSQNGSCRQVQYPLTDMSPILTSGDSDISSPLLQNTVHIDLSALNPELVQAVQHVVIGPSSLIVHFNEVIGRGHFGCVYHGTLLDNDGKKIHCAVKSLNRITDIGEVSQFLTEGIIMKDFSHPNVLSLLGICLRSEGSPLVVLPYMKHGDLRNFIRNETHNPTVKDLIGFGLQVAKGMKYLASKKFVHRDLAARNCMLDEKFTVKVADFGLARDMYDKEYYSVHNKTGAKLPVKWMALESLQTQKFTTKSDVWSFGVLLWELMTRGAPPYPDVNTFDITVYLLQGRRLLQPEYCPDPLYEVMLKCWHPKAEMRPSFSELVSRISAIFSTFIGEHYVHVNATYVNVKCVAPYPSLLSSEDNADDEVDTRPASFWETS

B1: L2-AzF-aMD4dY-PA22 PEG-modified using m-dPEG24-DBCO (peptide)
chain: AETCRQFNRRTHEVWNLDCGAAPAAPAPAA[Phe(4-N3)](m‑dPEG24‑DBCO)AAPAPAAPAAPGCRQFNRRTHEVWNLDC
modifications: cysteine pairing not given here
reporter activity (SRE reporter, firefly/Renilla luciferase, HEK293 cells, relative to Mock); PEG+ sample, 2500-fold diluted (Met): > 10 times that of Mock

B2: L1-AzF-EPO-PA22 PEG-modified using m-dPEG24-DBCO (peptide)
chain: AETGGLYACHMGPMTWVCQPLRGAAPAAPAPAAPA[Phe(4-N3)](m‑dPEG24‑DBCO)APAPAAPAAPGGLYACHMGPMTWVCQPLRG
reporter activity (PathHunter eXpress EpoR-JAK2 Functional Assay, chemiluminescence relative to Mock); PEG+ sample, 1000-fold diluted (EPOR): > 1.5 times that of Mock

B3: L2-AzF-aMD4dY-PA22 (peptide)
chain: AETCRQFNRRTHEVWNLDCGAAPAAPAPAA[Phe(4-N3)]AAPAPAAPAAPGCRQFNRRTHEVWNLDC
modifications: cysteine pairing not given here
reporter activity (SRE reporter, firefly/Renilla luciferase, HEK293 cells, relative to Mock); PEG- sample, 2500-fold diluted (Met): > 10 times that of Mock

B4: N-AzF-EPO-PA22 (peptide)
chain: AET[Phe(4-N3)]GGLYACHMGPMTWVCQPLRGAAPAAPAPAAPAAPAPAAPAAPGGLYACHMGPMTWVCQPLRG
reporter activity (PathHunter eXpress EpoR-JAK2 Functional Assay, chemiluminescence relative to Mock); PEG- sample, 1000-fold diluted (EPOR): > 1.5 times that of Mock

B5: L2-AzF-EPO-PA22 PEG-modified using m-dPEG24-DBCO (peptide)
chain: AETGGLYACHMGPMTWVCQPLRGAAPAAPAPAA[Phe(4-N3)](m‑dPEG24‑DBCO)AAPAPAAPAAPGGLYACHMGPMTWVCQPLRG
reporter activity (PathHunter eXpress EpoR-JAK2 Functional Assay, chemiluminescence relative to Mock); PEG+ sample, 1000-fold diluted (EPOR): > 1.5 times that of Mock

B6: N-AzF-aMD4dY-PA22 PEG-modified using m-dPEG24-DBCO (peptide)
chain: AET[Phe(4-N3)](m‑dPEG24‑DBCO)CRQFNRRTHEVWNLDCGAAPAAPAPAAPAAPAPAAPAAPGCRQFNRRTHEVWNLDC
modifications: cysteine pairing not given here
reporter activity (SRE reporter, firefly/Renilla luciferase, HEK293 cells, relative to Mock); PEG+ sample, 2500-fold diluted (Met): > 10 times that of Mock

B7: L1-AzF-aMD4dY-PA22 (peptide)
chain: AETCRQFNRRTHEVWNLDCGAAPAAPAPAAPA[Phe(4-N3)]APAPAAPAAPGCRQFNRRTHEVWNLDC
modifications: cysteine pairing not given here
reporter activity (SRE reporter, firefly/Renilla luciferase, HEK293 cells, relative to Mock); PEG- sample, 2500-fold diluted (Met): > 10 times that of Mock

B8: WT-EPO-PA22 (peptide)
chain: AETGGLYACHMGPMTWVCQPLRGAAPAAPAPAAPAAPAPAAPAAPGGLYACHMGPMTWVCQPLRG
reporter activity (PathHunter eXpress EpoR-JAK2 Functional Assay, chemiluminescence relative to Mock); PEG+ sample (WT treated with m-dPEG24-DBCO, not modified), 1000-fold diluted (EPOR): > 1.5 times that of Mock
reporter activity (PathHunter eXpress EpoR-JAK2 Functional Assay, chemiluminescence relative to Mock); PEG- sample, 1000-fold diluted (EPOR): > 1.5 times that of Mock

B9: WT-aMD4dY-PA22 (peptide)
chain: AETCRQFNRRTHEVWNLDCGAAPAAPAPAAPAAPAPAAPAAPGCRQFNRRTHEVWNLDC
reporter activity (SRE reporter, firefly/Renilla luciferase, HEK293 cells, relative to Mock); PEG+ sample (WT treated with m-dPEG24-DBCO, not modified), 2500-fold diluted (Met): > 10 times that of Mock
reporter activity (SRE reporter, firefly/Renilla luciferase, HEK293 cells, relative to Mock); PEG- sample, 2500-fold diluted (Met): > 10 times that of Mock

B10: L2-AzF-EPO-PA22 (peptide)
chain: AETGGLYACHMGPMTWVCQPLRGAAPAAPAPAA[Phe(4-N3)]AAPAPAAPAAPGGLYACHMGPMTWVCQPLRG
reporter activity (PathHunter eXpress EpoR-JAK2 Functional Assay, chemiluminescence relative to Mock); PEG- sample, 1000-fold diluted (EPOR): > 1.5 times that of Mock

B11: N-AzF-aMD4dY-PA22 (peptide)
chain: AET[Phe(4-N3)]CRQFNRRTHEVWNLDCGAAPAAPAPAAPAAPAPAAPAAPGCRQFNRRTHEVWNLDC
modifications: cysteine pairing not given here
reporter activity (SRE reporter, firefly/Renilla luciferase, HEK293 cells, relative to Mock); PEG- sample, 2500-fold diluted (Met): > 10 times that of Mock

B12: L1-AzF-aMD4dY-PA22 PEG-modified using m-dPEG24-DBCO (peptide)
chain: AETCRQFNRRTHEVWNLDCGAAPAAPAPAAPA[Phe(4-N3)](m‑dPEG24‑DBCO)APAPAAPAAPGCRQFNRRTHEVWNLDC
modifications: cysteine pairing not given here
reporter activity (SRE reporter, firefly/Renilla luciferase, HEK293 cells, relative to Mock); PEG+ sample, 2500-fold diluted (Met): > 10 times that of Mock

B13: N-AzF-EPO-PA22 PEG-modified using m-dPEG24-DBCO (peptide)
chain: AET[Phe(4-N3)](m‑dPEG24‑DBCO)GGLYACHMGPMTWVCQPLRGAAPAAPAPAAPAAPAPAAPAAPGGLYACHMGPMTWVCQPLRG
reporter activity (PathHunter eXpress EpoR-JAK2 Functional Assay, chemiluminescence relative to Mock); PEG+ sample, 1000-fold diluted (EPOR): > 1.5 times that of Mock

B14: L1-AzF-EPO-PA22 (peptide)
chain: AETGGLYACHMGPMTWVCQPLRGAAPAAPAPAAPA[Phe(4-N3)]APAPAAPAAPGGLYACHMGPMTWVCQPLRG
reporter activity (PathHunter eXpress EpoR-JAK2 Functional Assay, chemiluminescence relative to Mock); PEG- sample, 1000-fold diluted (EPOR): > 1.5 times that of Mock
